The source of these data is US20250076311A1 (Chugai, published 2025).

What all share (assay): SPR Biacore, antibody captured, FcgR analyte
For test [1], the target named is T1, cynomolgus monkey FcγRIIa1 extracellular domain with C-terminal His-tag (cynomolgus monkey).
T1 construct: also called cyno FcgRIIa1; cynoFcγRIIa1; not shown: His-tag added to C-terminus
T1 chain: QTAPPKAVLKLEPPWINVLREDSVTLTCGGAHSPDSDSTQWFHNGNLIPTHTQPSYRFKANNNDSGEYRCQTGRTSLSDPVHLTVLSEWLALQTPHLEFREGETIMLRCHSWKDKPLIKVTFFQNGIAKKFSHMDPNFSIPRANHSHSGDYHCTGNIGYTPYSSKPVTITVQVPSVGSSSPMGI

Test [2] concerns the target T2, cynomolgus monkey FcγRIIIaS extracellular domain with C-terminal His-tag (cynomolgus monkey, UniProt A3RFZ7 21-206 (rhesus entry)).
T2 construct: also called cyno FcgRIIIaS; cynoFcγRIIIaS; not shown: His-tag added to C-terminus

For test [3], the target named is T3, cynomolgus monkey FcγRIIa3 extracellular domain with C-terminal His-tag (cynomolgus monkey).
T3 construct: also called cyno FcgRIIa3; cynoFcγRIIa3; not shown: His-tag added to C-terminus
T3 chain: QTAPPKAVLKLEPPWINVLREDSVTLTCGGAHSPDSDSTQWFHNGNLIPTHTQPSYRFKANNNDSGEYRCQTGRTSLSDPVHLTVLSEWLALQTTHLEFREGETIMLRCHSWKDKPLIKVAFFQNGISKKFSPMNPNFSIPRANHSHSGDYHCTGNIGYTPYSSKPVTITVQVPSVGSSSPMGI

The target of test [4] is T4, cynomolgus monkey FcγRIIb extracellular domain with C-terminal His-tag (cynomolgus monkey).
T4 construct: also called cyno FcgRIIb; cynoFcγRIIb; not shown: His-tag added to C-terminus
T4 chain: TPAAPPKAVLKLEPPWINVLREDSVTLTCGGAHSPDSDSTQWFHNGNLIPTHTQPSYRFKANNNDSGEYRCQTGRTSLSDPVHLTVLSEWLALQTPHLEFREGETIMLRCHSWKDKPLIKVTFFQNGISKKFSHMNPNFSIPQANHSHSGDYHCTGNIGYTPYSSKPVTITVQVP

Test [5] has as its target T5, human FcγRIIb extracellular domain with C-terminal His-tag (human, UniProt P31994 43-217).
T5 construct: also called human FcgRIIb; not shown: His-tag added to C-terminus
T5 sequence: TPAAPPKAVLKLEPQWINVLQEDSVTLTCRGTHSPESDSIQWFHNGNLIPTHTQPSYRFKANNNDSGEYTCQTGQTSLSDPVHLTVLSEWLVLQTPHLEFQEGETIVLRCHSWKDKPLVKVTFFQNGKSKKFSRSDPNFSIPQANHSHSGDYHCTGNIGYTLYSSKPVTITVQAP

The target of test [6] is T6, human FcγRIIaH extracellular domain with C-terminal His-tag (human, UniProt P12318 34-217).
T6 construct: also called human FcgRIIaH; FcγRIIa (type H); not shown: His-tag added to C-terminus
T6 sequence: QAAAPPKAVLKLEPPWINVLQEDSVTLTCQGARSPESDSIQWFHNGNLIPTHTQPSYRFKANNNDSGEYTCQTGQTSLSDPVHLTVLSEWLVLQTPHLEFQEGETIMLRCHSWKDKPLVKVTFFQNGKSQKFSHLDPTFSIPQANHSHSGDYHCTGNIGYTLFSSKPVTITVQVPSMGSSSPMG

B1: M103205H795-MY169/M103202L889-SK1 (antibody, human IgG1, kappa, name in EU numbering)
heavy: QVTLKESGPVLVKPTETLTLTCTVSGIDLSHDDISWVRQAPGKGLEWVGIISYAGSTYYASWAKGRLTISKDTSKNQVVLTMTNMDPVDTATYYCARGVPAYSHGGDLWGQGTLVTVSSASTKGPSVFPLAPSSKSTSGGTAALGCLVKDYFPEPVTVSWNSGALTSGVHTFPAVLQSSGLYSLSSVVTVPSSSLGTQTYICNVNHKPSNTKVDKKVEPKSCDKTHTCPPCPAPELLNGPSVFLFPPKPKDTLMISRTPEVTCVVVDVSEEDPEVKFNWYVDGVEVHNAKTKPREEQYNSTYRVVSVLTVLHQDWLNGKEYKCKVSNKALPAPIEKTISKAKGQPREPQVYTLPPSREEMTKNQVSLTCLVKGFYPSDIAVEWESNGQPENNYKTTPDVLDSDGSFFLYSKLTVDKSRWQQGNVFSCSVMHEALHNHYTQKSLSLSP
light: DIVMTQSPATLSLSPGERATLSCTSSQSVYHANWLSWFQQKPGQPPKLLIYWASTLAYGVPSRFSGSGSGTDFTLTISSLQPEDAATYYCAGGYGGGRYAFGQGTKVEIKRTVAAPSVFIFPPSDEQLKSGTASVVCLLNNFYPREAKVQWKVDNALQSGNSQESVTEQDSKDSTYSLSSTLTLSKADYEKHKVYACEVTHQGLSSPVTKSFNRGEC
notes: EU numbering
Broadly, the Kd is the concentration at which binding is half-saturated. Take B1: the Kd in test [1] was determined as 23 µM. Further, in test [2], the “KD fold (SG1 = 1)” value came out at 0.1 fold and the Kd turned out to be 3.5 µM.

B2: M103205H795-MY173/M103202L889-SK1 (antibody, human IgG1, kappa, name in EU numbering)
heavy: QVTLKESGPVLVKPTETLTLTCTVSGIDLSHDDISWVRQAPGKGLEWVGIISYAGSTYYASWAKGRLTISKDTSKNQVVLTMTNMDPVDTATYYCARGVPAYSHGGDLWGQGTLVTVSSASTKGPSVFPLAPSSKSTSGGTAALGCLVKDYFPEPVTVSWNSGALTSGVHTFPAVLQSSGLYSLSSVVTVPSSSLGTQTYICNVNHKPSNTKVDKKVEPKSCDKTHTCPPCPAPELLNGPSVFLFPPKPKDTLMISRTPEVTCVVVDVSEEDPEVKFNWYVDGVEVHNAKTKPREEQYNSTYRVVSVLTVLHQDWLNGKEYKCKVSNKALPAPIEKTISKAKGQPREPQVYTLPPSREEMTKNQVSLTCLVKGFYPSDIAVEWESNGQPENNYKTTPHVLDSDGSFFLYSKLTVDKSRWQQGNVFSCSVMHEALHNHYTQKSLSLSP
light: DIVMTQSPATLSLSPGERATLSCTSSQSVYHANWLSWFQQKPGQPPKLLIYWASTLAYGVPSRFSGSGSGTDFTLTISSLQPEDAATYYCAGGYGGGRYAFGQGTKVEIKRTVAAPSVFIFPPSDEQLKSGTASVVCLLNNFYPREAKVQWKVDNALQSGNSQESVTEQDSKDSTYSLSSTLTLSKADYEKHKVYACEVTHQGLSSPVTKSFNRGEC
notes: EU numbering
On to B2, for which the “KD fold (SG1 = 1)” value was 1.5 fold in test [1] and 0.12 fold in test [2]. Also, the Kd in test [3] was found to be 8 µM; in test [4], 0.73 µM; in test [2], 3.1 µM; in test [5] it was 1 µM.

B3: M103205H795-MY170/M103202L889-SK1 (antibody, human IgG1, kappa, name in EU numbering)
heavy: QVTLKESGPVLVKPTETLTLTCTVSGIDLSHDDISWVRQAPGKGLEWVGIISYAGSTYYASWAKGRLTISKDTSKNQVVLTMTNMDPVDTATYYCARGVPAYSHGGDLWGQGTLVTVSSASTKGPSVFPLAPSSKSTSGGTAALGCLVKDYFPEPVTVSWNSGALTSGVHTFPAVLQSSGLYSLSSVVTVPSSSLGTQTYICNVNHKPSNTKVDKKVEPKSCDKTHTCPPCPAPELLNGPSVFLFPPKPKDTLMISRTPEVTCVVVDVSEEDPEVKFNWYVDGVEVHNAKTKPREEQYNSTYRVVSVLTVLHQDWLNGKEYKCKVSNKALPAPIEKTISKAKGQPREPQVYTLPPSREEMTKNQVSLTCLVKGFYPSDIAVEWESNGQPENNYKTTPEVLDSDGSFFLYSKLTVDKSRWQQGNVFSCSVMHEALHNHYTQKSLSLSP
light: DIVMTQSPATLSLSPGERATLSCTSSQSVYHANWLSWFQQKPGQPPKLLIYWASTLAYGVPSRFSGSGSGTDFTLTISSLQPEDAATYYCAGGYGGGRYAFGQGTKVEIKRTVAAPSVFIFPPSDEQLKSGTASVVCLLNNFYPREAKVQWKVDNALQSGNSQESVTEQDSKDSTYSLSSTLTLSKADYEKHKVYACEVTHQGLSSPVTKSFNRGEC
notes: EU numbering
B3: the results for the Kd in test [1], in test [3] and in test [2] were 23 µM, 1.2 µM and 7.9 µM, respectively. The figures for the “KD fold (SG1 = 1)” value in test [2] and in test [5] were 0.17 fold and 2.5 fold, respectively.

B4: M103205H795-MY198/M103202L889-SK1 (antibody, human IgG1, kappa, name in EU numbering)
heavy: QVTLKESGPVLVKPTETLTLTCTVSGIDLSHDDISWVRQAPGKGLEWVGIISYAGSTYYASWAKGRLTISKDTSKNQVVLTMTNMDPVDTATYYCARGVPAYSHGGDLWGQGTLVTVSSASTKGPSVFPLAPSSKSTSGGTAALGCLVKDYFPEPVTVSWNSGALTSGVHTFPAVLQSSGLYSLSSVVTVPSSSLGTQTYICNVNHKPSNTKVDKKVEPKSCDKTHTCPPCPAPELLNGPVVFLFPPKPKDTLMISRTPEVTCVVVDVSDEDPEVKFNWYVDGVEVHNAKTKPREEQYNSTYRVVSVLTVLHQDWLNGKEYKCKVSNKALPKPIEKTISKAKGQPREPQVYTLPPSREEMTKNQVSLTCLVKGFYPSDIAVEWESNGQPENNYKTTPMVLDSDGSFFLYSKLTVDKSRWQQGNVFSCSVMHEALHNHYTQKSLSLSP
light: DIVMTQSPATLSLSPGERATLSCTSSQSVYHANWLSWFQQKPGQPPKLLIYWASTLAYGVPSRFSGSGSGTDFTLTISSLQPEDAATYYCAGGYGGGRYAFGQGTKVEIKRTVAAPSVFIFPPSDEQLKSGTASVVCLLNNFYPREAKVQWKVDNALQSGNSQESVTEQDSKDSTYSLSSTLTLSKADYEKHKVYACEVTHQGLSSPVTKSFNRGEC
notes: substitutions in EU numbering, introduced into M103205H795-SG1
As for B4, the “KD fold (SG1 = 1)” value stood at 7.5 fold in test [1], 0.15 fold in test [2] and 1.2 fold in test [6].

B5: M103205H795-MY180/M103202L889-SK1 (antibody, human IgG1, kappa, name in EU numbering)
heavy: QVTLKESGPVLVKPTETLTLTCTVSGIDLSHDDISWVRQAPGKGLEWVGIISYAGSTYYASWAKGRLTISKDTSKNQVVLTMTNMDPVDTATYYCARGVPAYSHGGDLWGQGTLVTVSSASTKGPSVFPLAPSSKSTSGGTAALGCLVKDYFPEPVTVSWNSGALTSGVHTFPAVLQSSGLYSLSSVVTVPSSSLGTQTYICNVNHKPSNTKVDKKVEPKSCDKTHTCPPCPAPELLNGPSVFLFPPKPKDTLMISRTPEVTCVVVDVSEEDPEVKFNWYVDGVEVHNAKTKPREEQYNSTYRVVSVLTVLHQDWLNGKEYKCKVSNKALPAPIEKTISKAKGQPREPQVYTLPPSREEMTKNQVSLTCLVKGFYPSDIAVEWESNGQPENNYKTTPSVLDSDGSFFLYSKLTVDKSRWQQGNVFSCSVMHEALHNHYTQKSLSLSP
light: DIVMTQSPATLSLSPGERATLSCTSSQSVYHANWLSWFQQKPGQPPKLLIYWASTLAYGVPSRFSGSGSGTDFTLTISSLQPEDAATYYCAGGYGGGRYAFGQGTKVEIKRTVAAPSVFIFPPSDEQLKSGTASVVCLLNNFYPREAKVQWKVDNALQSGNSQESVTEQDSKDSTYSLSSTLTLSKADYEKHKVYACEVTHQGLSSPVTKSFNRGEC
notes: EU numbering
B5: the “KD fold (SG1 = 1)” value in test [1] was 1.7 fold; in test [2] it was 0.17 fold. Also, the results for the Kd in test [3], in test [2] and in test [5] were 1.2 µM, 3.1 µM and 1.9 µM, respectively.

B6: M103205H795-MY202/M103202L889-SK1 (antibody, human IgG1, kappa, name in EU numbering)
heavy: QVTLKESGPVLVKPTETLTLTCTVSGIDLSHDDISWVRQAPGKGLEWVGIISYAGSTYYASWAKGRLTISKDTSKNQVVLTMTNMDPVDTATYYCARGVPAYSHGGDLWGQGTLVTVSSASTKGPSVFPLAPSSKSTSGGTAALGCLVKDYFPEPVTVSWNSGALTSGVHTFPAVLQSSGLYSLSSVVTVPSSSLGTQTYICNVNHKPSNTKVDKKVEPKSCDKTHTCPPCPAPELLNGPVVFLFPPKPKDTLMISRTPEVTCVVVDVSDEDPEVKFNWYVDGVEVHNAKTKPREEQYNSTYRVVSVLTVLHQDWLNGKEYKCKVSNKALPKPIEKTISKAKGQPREPQVYTLPPSREEMTKNQVSLTCLVKGFYPSDIAVEWESNGQPENNYKTTPPVLDSDGSFFLYSKLTVDKSRWQQGNVFSCSVMHEALHNHYTQKSLSLSP
light: DIVMTQSPATLSLSPGERATLSCTSSQSVYHANWLSWFQQKPGQPPKLLIYWASTLAYGVPSRFSGSGSGTDFTLTISSLQPEDAATYYCAGGYGGGRYAFGQGTKVEIKRTVAAPSVFIFPPSDEQLKSGTASVVCLLNNFYPREAKVQWKVDNALQSGNSQESVTEQDSKDSTYSLSSTLTLSKADYEKHKVYACEVTHQGLSSPVTKSFNRGEC
notes: as for B4
In the case of B6, the “KD fold (SG1 = 1)” value in test [1] came to 3.7 fold; in test [2], 0.09 fold.
